Consider 72 sequences from the supplement of paper PMC10567573.

± gives the standard deviation.

The data set can be described thus: protein stability index of a GFP-peptide fusion (GPS, HEK-293T) (PSI 1-6); higher = more stable.
Where [1] appears, read: treatment: DMSO, c terminus: a fixed tail appended.
The mark [2] stands for this setting: treatment: MLN4924 1 uM, 8 h, c terminus: a fixed tail appended.
Setting [3] is: treatment: DMSO, c terminus: native.
Where [4] appears, read: treatment: MLN4924 1 uM, 8 h, c terminus: native.
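Note: 24-mer peptide tiles fused after GFP, lentivirally expressed, FACS-sorted into six equal bins by GFP/DsRed ratio, decoded by Illumina sequencing, PSI is the read-weighted mean bin number.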

Turning to DSQDLVASFRVTTGTSNTTAIKSI [RBBP5], the protein stability index came to 3.46 ± 0.24 under setting [1] and 3.59 ± 0.26 under setting [2].

Turning to DSQRVASVSLDRCIKIWDVTSQAT [WDR88], the protein stability index runs as follows: under setting [1], 3.1 ± 0.22; under setting [2], 3.12 ± 0.17.

Take DSSHDSARASEGSDSGSDKSLEGG [SMG5]: the protein stability index under setting [1] was 5.54 ± 0.31 and the protein stability index under setting [2] was determined as 5.51 ± 0.31. Take DTINRSVLDFDFEKLCSISLSHIN [USP39]: the protein stability index is, setting by setting: under setting [1], 2.6 ± 0.32; under setting [2], 2.79 ± 0.24. For the sequence DTISTIKSVAWEGGACPAFLPSLR [NCF4], the protein stability index under setting [1] is 2.92 ± 0.3 and the protein stability index under setting [2] was 2.9 ± 0.38. For DTTRVENLIKSENYGKILVEKNEH [R3HDM1] the same measures were 4.46 ± 0.089 and 4.4 ± 0.1.

Take DVEVPASVTGYSFASDGDSGTCSP [ADD1]: the protein stability index worked out at 5.16 ± 0.19 under setting [1] and 5.29 ± 0.11 under setting [2].

In the case of DVIQALDLSVPLMDVGETAMVTAD [FKBP8], the protein stability index under setting [1] was 3.41 ± 0.29 and the protein stability index under setting [2] turned out to be 3.53 ± 0.19.

For DVTCNEFFFDRNPGAFGTILTFLR [KCNG1], the protein stability index turned out to be 2.59 ± 0.33 under setting [1] and 2.65 ± 0.12 under setting [2]. DYKLLKPSLAVNLADPYRSLKAPG [JUNB]: the protein stability index was found to be 3.41 ± 0.35 under setting [1] and 3.35 ± 0.14 under setting [2]. For DYSASEYRWHINFTTFFIDCMAAL [SCD] the same measures were 2.54 ± 0.17 and 2.63 ± 0.47. Consider DYWLRRFEAEPLPENTNRQLLLQF [PI4K2A], for which the protein stability index stood at 2.41 ± 0.21 under setting [1] and 2.35 ± 0.27 under setting [2]. As to EAARLEYDAYRTDLEELSLGPRDA [ARFIP2], the protein stability index under setting [1] amounted to 4.78 ± 0.15 and the protein stability index under setting [2] came out at 4.86 ± 0.15. Sequence EACGRCEEVPEAYVDIHTGLSGSG [PYCR3] came in with a protein stability index under setting [1] of 4.29 ± 0.67 and a protein stability index under setting [2] of 4.57 ± 0.11. For EAETPPNGPDCGYGSFHQQYWLDG [ATE1] the same measures were 3.89 ± 0.31 and 4.15 ± 0.11. For the sequence EAFQIVLSHLLGDAGSPYLIGLIS [SPNS1], the protein stability index under setting [1] was 3.11 ± 0.37 and the protein stability index under setting [2] was 2.98 ± 0.41. In the same order, the values of EALSVPLSLCVSSHLALPAQHHWE [CLPTM1] are 2.15 ± 0.27 and 2.2 ± 0.29. In the same order, the values of EDIALNKHRSRRKWCFWNSSPAVA [RHOBTB1] are 2.31 ± 0.22 and 2.28 ± 0.23.

With EDLMPLAAAYGHALEQYEGESWRE [P3H4], the protein stability index is 4.59 ± 0.53 under setting [1] and 4.86 ± 0.17 under setting [2]. Turning to EDPSFWDCFCFTEEIPIRNGTKS [AASDHPPT], the protein stability index reads like this: under setting [3], 3.92 ± 0.12; under setting [4], 4.22 ± 0.22.

Regarding EDQAEAWGCSCCPPETKHQALSGT [TSPAN10], the protein stability index stood at 4.71 ± 0.31 under setting [1] and 4.67 ± 0.18 under setting [2]. For EEEEEEEAAGVVVEEELFHQQGTP [LMNB1] the same measures were 5.38 ± 0.31 and 5.47 ± 0.41. On to EEEVVEGEKEVEALKKSADWVSDW [BNIP3L], for which the protein stability index under setting [1] amounted to 5.08 ± 0.25 and the protein stability index under setting [2] was 5.36 ± 0.34. In the case of EEFIATIRAAKGLDQALKEGGKLP [ZC2HC1A], the protein stability index was 3.98 ± 0.22 under setting [1] and 3.93 ± 0.16 under setting [2].

For the sequence EEQVILTEKDLLEDGFGEHPFYHC [SAT1], the protein stability index reads like this: under setting [1], 3.95 ± 0.24; under setting [2], 4.15 ± 0.42. In the same order, the values of EERAKAKHLARQLEEKDRVLKKQD [CHCHD3] are 5.51 ± 0.14 and 5.42 ± 0.16. For the sequence EERQAAQNECQVLKLLNHPNVIEY [NEK8], the protein stability index came to 4.01 ± 0.16 under setting [1] and 4.29 ± 0.11 under setting [2].

For the sequence EEWGQLDPTQRILYRDVMLETFGH [ZNF8], the protein stability index under setting [1] was found to be 2.91 ± 0.32 and the protein stability index under setting [2] was 3.22 ± 0.38. In the same order, the values of EFPESRKPISTKSQFLKHQQTHNI [ZNF649] are 3.72 ± 0.47 and 3.57 ± 0.5. For EFSLVNVNLQRFGMNGQMLCNLGK [ETS2] the same measures were 2.32 ± 0.4 and 2.58 ± 0.16. Turning to EGAIAVHCKAGLGRTGTLIACYVM [CDC14A], the protein stability index under setting [1] worked out at 3.02 ± 0.56 and the protein stability index under setting [2] was 2.86 ± 0.51.

For the sequence EGGKLPPPPPPSYDPDYIQCPYCQ [ZC2HC1A], the protein stability index is, setting by setting: under setting [1], 4.03 ± 0.3; under setting [2], 4.45 ± 0.27. As for EGNHPSARKLTAQRRASTVSSVTQ [NET1], the protein stability index was found to be 4.39 ± 0.25 under setting [1] and 4.69 ± 0.18 under setting [2]. As to EGSREHAFQITGVWDASRAPRGTP [PLEKHN1], the protein stability index by setting is: under setting [1], 4.34 ± 0.27; under setting [2], 4.39 ± 0.26. Take EGSVACLWWDPIQRLLFSGASDNS [WDFY1]: the protein stability index under setting [1] was found to be 2.36 ± 0.32 and the protein stability index under setting [2] amounted to 2.43 ± 0.1.

As to EHDAWFIFFMAAFAFSNGYLASLC [SLC29A1], the protein stability index was determined as 3.19 ± 0.5 under setting [1] and 3.25 ± 0.48 under setting [2].

For the sequence EHSWIKAIRRRNVRGEDSGRKPER [DAPK3], the protein stability index turned out to be 3.62 ± 1.7 under setting [1] and 4.07 ± 0.23 under setting [2]. As to EINKRTAAENEFVLLKKDVDAAYA [KRT71], the protein stability index was determined as 3.76 ± 0.26 under setting [1] and 4.24 ± 0.24 under setting [2]. For EIPKQVKVKKLKNLKTLDSKPGVY [DENND6A], the protein stability index worked out at 3.4 ± 0.34 under setting [1] and 3.31 ± 0.52 under setting [2].

In the case of EKEQEKMRQDLEEERVALNTEIEK [PKD2L1], the protein stability index is, setting by setting: under setting [1], 5.45 ± 0.27; under setting [2], 5.64 ± 0.15. Take EKHCEFKQLALDHFKKTKKMGGKD [ATL3]: the protein stability index runs as follows: under setting [1], 4.64 ± 0.14; under setting [2], 4.57 ± 0.39. EKLKVAPPNADLEQGFQEGVPNAS [MFF]: the protein stability index reads like this: under setting [1], 5.28 ± 0.17; under setting [2], 5.22 ± 0.17. Turning to EKTQKNQCWKSLFIDTYSDVGRYI [FBXO3], the protein stability index reads like this: under setting [1], 2.53 ± 0.73; under setting [2], 2.15 ± 0.33. For the sequence ELCHHVAEVWVSGTIFIRNVLLFK [RETREG3], the protein stability index amounted to 3.09 ± 0.67 under setting [1] and 2.81 ± 0.61 under setting [2]. With ELETVDFKDKLEETKGQINNSIKD [SERPINB5], the protein stability index under setting [1] was 5.29 ± 0.46 and the protein stability index under setting [2] was 5.51 ± 0.12.

On to ELFAWGRGDSGRLGLGTRESHSCP [NEK8], for which the protein stability index by setting is: under setting [1], 2.95 ± 0.26; under setting [2], 3.27 ± 0.22.

For ELLTLVNRKVSQRRVDFCKDPSAI [CASP6], the protein stability index came to 2.22 ± 0.36 under setting [1] and 2.24 ± 0.14 under setting [2]. For ELPSALESHEVPGTLSMGVPQIFK [ZNF24] the same measures were 4.07 ± 0.12 and 4.11 ± 0.13.

For ELRRNHCFQDFKEEKPQENKTWRE [ELOA2], the protein stability index under setting [1] turned out to be 3.31 ± 0.31 and the protein stability index under setting [2] was determined as 3.47 ± 0.41. In the same order, the values of EMAEQLMTLAYDNGINLFDTAEVY [KCNAB2] are 2.3 ± 0.44 and 2.44 ± 0.29. For EMREQYEAMAEKNRRDVEAWFFSK [KRT15] the same measures were 3.85 ± 0.13 and 3.88 ± 0.39. As for EMSIHLSRPNGTSAMLLVTLGKVL [MED27], the protein stability index under setting [1] stood at 2.41 ± 0.46 and the protein stability index under setting [2] is 2.2 ± 0.26. In the same order, the values of EMWADQLTSLKDLYKSLKTLSAEL [CEP70] are 2.3 ± 0.18 and 2.1 ± 0.25.

For the sequence ENQRENLEQPFLSVFKKGRRRVPV [PLEKHN1], the protein stability index under setting [1] turned out to be 3.31 ± 0.4 and the protein stability index under setting [2] was found to be 3.46 ± 0.18.

For EPAGSLRELGVWRSLLRLRATRAG [C2CD2L], the protein stability index under setting [1] turned out to be 2.88 ± 0.29 and the protein stability index under setting [2] amounted to 3.06 ± 0.46. For EPHGKMFNEQTWEVSQQDPSHGEV [ZSCAN9] the same measures were 5.06 ± 0.16 and 5.04 ± 0.18. In the same order, the values of EPVAAGSGIPEVKCYLNGVKVPGI [CLCN6] are 3.19 ± 0.61 and 3.59 ± 0.34.

Consider EPVLLFGKIRRGAYALPAGLSAPA [TRIB3], for which the protein stability index was 2.76 ± 0.19 under setting [1] and 3.01 ± 0.26 under setting [2]. For ERKQALYEYARRRFTERRAQEAD [AUP1], the protein stability index runs as follows: under setting [3], 4.22 ± 0.15; under setting [4], 4.25 ± 0.29. For the sequence ERLKQEIERLTREVEATRRALIDR [DDIT3], the protein stability index reads like this: under setting [1], 3.6 ± 0.24; under setting [2], 3.56 ± 0.29. For ERRPRRVEAERPHSLIGVIRETVL [FAM189A2] the same measures were 3.64 ± 0.32 and 3.91 ± 0.41. For ERRRGPAAGEQLQQQHVSCQVFPE [ATP23] the same measures were 4.6 ± 0.21 and 4.72 ± 0.36.

Regarding ERTSPGAIHYCASTSEESWTDSEV [SPDEF], the protein stability index is, setting by setting: under setting [1], 5.25 ± 0.058; under setting [2], 4.97 ± 0.18. For ESDSCQKCEQPFFWNIKQMWDTKT [WDFY1] the same measures were 3.25 ± 0.089 and 3.19 ± 0.24.

On to ESDTDGAGGNSSSSAAMQSSCSST [CCDC6], for which the protein stability index reads like this: under setting [1], 5.58 ± 0.2; under setting [2], 5.69 ± 0.3. In the same order, the values of ESGASIEDHNENGHTPLMEAGSAG [ANKRD17] are 5.47 ± 0.25 and 5.35 ± 0.28. For ESLEDVAMYISQEEWGHQDPSKRA [ZNF263] the same measures were 4.99 ± 0.069 and 5.03 ± 0.26. As for ESLKVIGRGAFGEVRLVQKKDTGH [STK38L], the protein stability index worked out at 4.69 ± 0.17 under setting [1] and 4.63 ± 0.19 under setting [2]. Under setting [1], ESSTRLLLEKNASVNEVDFEGRTP [RIPK4] returned a protein stability index of 4.83 ± 0.79. Consider ESVTHHDYRMELAQAGTPAPTKPH [SPAG8], for which the protein stability index stood at 4.95 ± 0.26 under setting [1] and 4.99 ± 0.12 under setting [2].

For ETRAEDPPWFEGLESRFQSKSGYL [DFFB], the protein stability index came to 3.56 ± 0.063 under setting [1] and 3.63 ± 0.069 under setting [2]. In the same order, the values of EVDPTGHSFVLVTSLGLTYDGMLS [MAGEA10] are 2.51 ± 0.47 and 2.52 ± 0.51.
